{"source": "patent US10215752B2", "about": "“Nanotube array for optical detection of protein-protein interactions” (MASSACHUSETTS INSTITUTE OF TECHNOLOGY, priority 2010, dated 2019)", "key": {"[1]": {"system": "SWNT-Chitosan lectin sensors", "experiment": "Ensemble chitosan-SWNT sensor measurements, controls and overall response (lectin not stated)", "type": "binding", "conditions": "FIG. 30a", "method": "To increase the reproducibility of these sensors, an automated printing method of the chitosan gel was introduced (FIG. 35). Patterned glass microscope slides (Tekdon™) were inserted in a microarray printer (Digilab MicroSys System™), where the robotic head was programmed to dispense alternating layers of chitosan-SWNT (0.25 wt % chitosan (CHI), 1 vol % acetic acid, 30 ug/ml suspended (6,5) SWNT) and crosslinker (10 vol % glutaraldehyde). The suspended SWNT was made from Southwest Nanotechnologies, Inc. CoMoCAT® nanotubes sonicated in 0.25 wt % chitosan (CHI) and 1 vol % acetic acid for 45 minutes at 40% amplitude with a probe-tip sonicator (Cole Parmer, Model CV18). For each sensor spot ten alternating layers of SWNT-CHI and cross-linker were printed at […] per layer, resulting in a highly-uniform gel of 1 ul SWNT-CHI material. […]\nA custom-made near infrared inverted microscope (Zeiss D.1 Observer™) setup allowed us to probe the fluorescent emissions of our SWNT sensors (FIG. 26a). […] The SWNT were excited by a 785 nm laser (B&W Tek™—495 mW) and the emission was sent to a spectrometer (Princeton Instruments Acton SpectraPro 2500i Spectrograph™) and accompanying nIR camera (Intervac MOSIR Camera 350™) The spectra were collected via WinSpec software (Princeton Instruments™) and analyzed with custom Matlab (Mathworks™) code. […]"}, "GafD lectin [2]": {"target": "T1, GafD lectin (Escherichia coli, UniProt Q47341)", "T1 sequence (Q47341 23-343)": "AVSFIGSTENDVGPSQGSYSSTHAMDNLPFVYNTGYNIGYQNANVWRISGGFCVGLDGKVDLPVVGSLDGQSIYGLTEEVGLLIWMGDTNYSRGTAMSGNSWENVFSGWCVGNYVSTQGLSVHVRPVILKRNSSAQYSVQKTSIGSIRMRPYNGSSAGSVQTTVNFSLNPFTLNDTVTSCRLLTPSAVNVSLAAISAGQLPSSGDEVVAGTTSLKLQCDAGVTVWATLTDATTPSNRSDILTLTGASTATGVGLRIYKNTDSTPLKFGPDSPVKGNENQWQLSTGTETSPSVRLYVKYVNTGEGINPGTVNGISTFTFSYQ", "type": "binding", "set-up": "made in house; host or cells: E. coli BL21(DE3) Star", "conditions": "for sensor response / cross response to GafD lectin: controls and selectivity, FIG. 30a, FIG. 31", "method": "(§1) To increase the reproducibility of these sensors, an automated printing method of the chitosan gel was introduced (FIG. 35). Patterned glass microscope slides (Tekdon™) were inserted in a microarray printer (Digilab MicroSys System™), where the robotic head was programmed to dispense alternating layers of chitosan-SWNT (0.25 wt % chitosan (CHI), 1 vol % acetic acid, 30 ug/ml suspended (6,5) SWNT) and crosslinker (10 vol % glutaraldehyde). The suspended SWNT was made from Southwest Nanotechnologies, Inc. CoMoCAT® nanotubes sonicated in 0.25 wt % chitosan (CHI) and 1 vol % acetic acid for 45 minutes at 40% amplitude with a probe-tip sonicator (Cole Parmer, Model CV18). […] The chips were printed in a humidified enclosure (85% RH) at 25° C. and allowed to cross-link overnight in the same environment. Nickel-NTA groups were introduced as previously reported^8; see FIG. 3. Briefly, the chips were washed with a dilute basic buffer (0.01 M NaOH) and water three times. Carboxylic acid groups were introduced to the chitosan wrapped SWNT by bathing the chips in succinic anhydride (0.1 M) overnight. The chips were then washed three times with water and the carboxylic acid groups were activated via N-(3-dimethylaminopropyl)-N′-ethylcarbo diimide hydrochloride (EDC-0.1M) and N-hydroxysuccinimide (NHS-0.1M). The chips were bathed in this solution for 2 hours at 25° C. and examined for the expected formation of bubbles. The chips were again washed and allowed to bathe in a solution of a linked tricarboxylic acid group (Nα,Nα-bis(carboxymethyl)-L-lysine a.k.a. NTA-33 mM) overnight. The chips were washed in water again and stored in a 100 mM solution of NiSO4 to allow maximum binding of nickel to the NTA chelating groups.\n(§2) A custom-made near infrared inverted microscope (Zeiss D.1 Observer™) setup allowed us to probe the fluorescent emissions of our SWNT sensors (FIG. 26a). The chips were secured on the microscope stage and the objective (50×/0.7 Zeiss™) was pushed in contact with a blank portion of the glass slide (no SWNT-CHI) to obtain a 5 second background spectrum, which was subtracted from the response spectra. The objective was then moved under a SWNT-CHI gel spot and again pushed in contact with the glass slide. […] The SWNT were excited by a 785 nm laser (B&W Tek™—495 mW) and the emission was sent to a spectrometer (Princeton Instruments Acton SpectraPro 2500i Spectrograph™) and accompanying nIR camera (Intervac MOSIR Camera 350™) The spectra were collected via WinSpec software (Princeton Instruments™) and analyzed with custom Matlab (Mathworks™) code. To maximize signal stability, the spectrometer was cooled with liquid nitrogen two hours prior to experimentation and the laser was allowed to reach peak stability for two hours. […] Data was gathered in the form of emission intensity spectra (950-1250 nm) integrated for 5 seconds.\n(§3) A typical experiment was run for approximately 1000 frames (at 5 seconds each) and included a few addition and washing steps to detect lectin-glycan binding (FIG. 26b). First NiSO4 was again added to ensure that the SWNT sensors were responsive and that the NTA chelating groups were fully loaded with Ni^++ groups. The nickel was then washed away with PBS three times, leaving 20 ul of PBS on the sensors. The His-tag lectin was then added to the sensor (20 μl at 2 mg/ml) and allowed to bind for 300 seconds."}, "PA-IIL lectin": {"target": "T2, PA-IIL lectin (Pseudomonas aeruginosa, UniProt Q9HYN5)", "T2 construct": "made in house; host or cells: E. coli BL21(DE3) Star", "T2 sequence (Q9HYN5 entry or part of it)": "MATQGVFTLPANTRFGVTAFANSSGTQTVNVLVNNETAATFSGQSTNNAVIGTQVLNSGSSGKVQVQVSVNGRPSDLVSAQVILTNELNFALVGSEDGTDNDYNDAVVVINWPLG", "type": "binding", "conditions": "for sensor response / cross response to PA-IIL lectin: controls and selectivity, FIG. 30a, FIG. 31", "method": "as §1, §2, §3"}, "GafD lectin [3]": {"target": "T1, GafD lectin", "conditions": "probe 1 mg/ml with GafD 3 mg/ml in solution", "description": "The interaction between lection and glycan was analyzed by 15% native PAGE according to the method of Schagger and von Jagow with minor modifications. […] Briefly, blectrophoresis was performed using Mini Protean Electrophoresis system (Bio-Rad, USA™) for molecular interaction under nondenaturing conditions. Nonreduced protein/glycan samples in the sample buffer (20% glycerol, 200 mM Tris-HCl, pH 6.8, 0.05% bromophenol blue) were applied to the gel (gel buffer: 25 mM Tris-HCl, 200 mM glycine). Electrophoresis was performed at 80 V for 120 min. After electrophoresis, the protein bands were visualized by staining with Coomassie Brilliant Blue R-250."}, "GafD lectin [4]": {"target": "T1, GafD lectin", "conditions": "10 μM probe, sum of noise-reduced traces from 150 individual SWNT sensors", "description": "A second custom microscope was used to collect emission intensities of single SWNT sensors (FIG. 27a). The SWNT-CHI gel was diluted to 3 μg/ml of SWNT and spin-coated (3000 rpm for 30 s on Make of SpinCoater™) on glass-bottom petridishes (MarTec Corp™). The petri-dishes were then placed on the microscope platform (Zeiss D.1 Observer) and the oil-immersed objective (Zeiss™ 100×/1.46) was focused on the SWNT sensors on the glass surface. The SWNT were excited by a 660 nm laser (Crystal Laser—100 mW) and the emission intensities were recorded by a nitrogen-cooled InGaAs array (Princeton Instruments™). […] These Tiff images were then analyzed using custom Matlab code (Mathworks™) to construct a intensity versus time trace for each SWNT sensor (FIG. 27c).\nThe use of single nanotube spectroscopy allowed this question to be addressed (FIG. 32). […] Using software developed in house, the movies of SWNT fluorescence were analyzed and intensity time traces were extracted for each of the individual SWNT sensors (FIG. 37).^24b An efficient algorithm for fitting large quantities of these time traces to embedded fluorescent levels was used.^35 Briefly, the algorithm used an optimized form of an established noise-reduction algorithm for biological experiments^36 to clean the traces (FIG. 37c). It then evaluated all-points histograms of each trace to determine the unique fluorescent states of each trace. […]"}, "CDK4": {"target": "CDK4 (Homo sapiens, UniProt P11802)", "sequence (P11802 with tags, fused parts or gaps)": "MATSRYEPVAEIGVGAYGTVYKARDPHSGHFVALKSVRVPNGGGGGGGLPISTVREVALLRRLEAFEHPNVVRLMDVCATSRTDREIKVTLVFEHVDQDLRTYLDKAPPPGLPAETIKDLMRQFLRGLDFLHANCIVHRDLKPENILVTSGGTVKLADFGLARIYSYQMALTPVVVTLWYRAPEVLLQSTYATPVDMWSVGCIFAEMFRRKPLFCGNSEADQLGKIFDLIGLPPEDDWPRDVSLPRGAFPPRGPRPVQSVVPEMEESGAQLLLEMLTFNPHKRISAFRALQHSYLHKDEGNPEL", "experiment": "Protein-protein interaction on SWNT/CHI array, Förster distance calculation", "conditions": "distance change after analyte protein CDK4, Förster equation", "description": "Reaction mixtures for cell-free protein expression were added to each array wells. The fluorescent intensities of each SWNT/CHI well were taken to track the intensity changes. To initiate protein synthesis, 1 μl PCR-amplified DNAs were added to each well a humidified chamber at 37° C. for 2 hours. The arrays were washed three times for 10 min each with PBS buffer (pH 7.4, 100 mM) at RT and then PL spectra were taken. To analyze protein-protein interaction on SWNT/XHI array, anti-Histag antibody or cell-free expressed protein mixtures were added to each well and then PL spectra were taken to compare the intensity change.\nNear-infrared photoluminescence spectra were acquired using 785 nm excitation and an Acton SP-150 spectrograph coupled to a Princeton instruments OMA V InGaAs detector or with Kaiser Holospec f/1.8 Imaging Spectrograph (Kaiser Optical)."}, "[5]": {"conditions": "after Ni2+ and GafD lectin loading, FIG. 29a-b"}, "[6]": {"conditions": "from concentration dependent curves, analyte to GafD"}, "[7]": {"conditions": "from concentration dependent curves, analyte to PA-IIL"}}, "note": "Read-outs that look alike come from different tables or passages of the source."}
{"molecule": "O=C(O)CCCC[C@@H]1SC[C@@H]2NC(=O)N[C@@H]21", "note": "[biotin]", "values": [{"measurement": "sensor response of controls", "setting": "[1]", "value": "negligible response"}]}
{"molecule": "GlcNAcβ-SpNH-LC-LC-Biotin [GlcNAc-Biotin]", "values": [{"measurement": "time response (loading curve) upon analyte addition", "setting": "GafD lectin [2]; [5]", "value": "loading curve was observed"}, {"measurement": "Kd", "setting": "GafD lectin [2]; [6]", "value": 19, "unit": "µM"}, {"measurement": "Kf", "setting": "GafD lectin [2]; [6]", "value": 0.0002, "unit": "µM/s"}, {"measurement": "kr", "setting": "GafD lectin [2]; [6]", "value": 0.0037, "unit": "s⁻¹"}]}
{"molecule": "Fuc-Strept: model glycoprotein probe: biotinylated fucose glycan bound to streptavidin", "values": [{"measurement": "sensor response / cross response to PA-IIL lectin", "setting": "PA-IIL lectin", "value": "positive response"}, {"measurement": "Kf", "setting": "PA-IIL lectin; [7]", "value": 0.0001, "unit": "µM/s"}, {"measurement": "sensor response / cross response to GafD lectin", "setting": "GafD lectin [2]", "value": "small affinity"}]}
{"molecule": "GlcNAc-Strept: model glycoprotein probe: biotinylated GlcNAc glycan bound to streptavidin", "values": [{"measurement": "sensor response / cross response to PA-IIL lectin", "setting": "PA-IIL lectin", "value": "negligible binding"}, {"measurement": "complex formation on native PAGE gel", "setting": "GafD lectin [3]", "value": "bound complex"}, {"measurement": "signal modulation (response)", "setting": "GafD lectin [4]", "value": "~3.5", "unit": "%"}, {"measurement": "time response (loading curve) upon analyte addition", "setting": "GafD lectin [2]; [5]", "value": "SPR-like loading curve was observed"}, {"measurement": "sensor response / cross response to GafD lectin", "setting": "GafD lectin [2]", "value": "positive response"}, {"measurement": "Kf", "setting": "GafD lectin [2]; [6]", "value": 0.0003, "unit": "µM/s"}, {"measurement": "kr", "setting": "GafD lectin [2]; [6]", "value": 0.015, "unit": "s⁻¹"}]}
{"molecule": "blank streptavidin: streptavidin (Sigma Aldrich SO677) without glycan", "values": [{"measurement": "sensor response of controls", "setting": "[1]", "value": "negligible response"}, {"measurement": "time response (loading curve) upon analyte addition", "setting": "GafD lectin [2]; GafD lectin biotinylated, positive control, FIG. 29c", "value": "expected loading curve was observed"}, {"measurement": "time response (loading curve) upon analyte addition", "setting": "GafD lectin [2]; [5]", "value": "No loading curve was observed"}]}
{"molecule": "p16: human derived protein (ExPASy P42771), on-chip cell-free expressed with His-tag", "values": [{"measurement": "Δd2", "setting": "CDK4", "value": 0.05174}]}
{"molecule": "Fucα1-2Galβ1-4Glcβ-SpNH-LC-LC-Biotin [Fuc-Biotin]", "values": [{"measurement": "Kd", "setting": "PA-IIL lectin; [7]", "value": 106, "unit": "µM"}, {"measurement": "Kf", "setting": "PA-IIL lectin; [7]", "value": "7e-05", "unit": "µM/s"}, {"measurement": "kr", "setting": "PA-IIL lectin; [7]", "value": 0.0074, "unit": "s⁻¹"}]}
